We go through 34 variants from the supplement of paper PMC6755084.

The chains are these.
B1: F1*; the commonest letter at each place (parent)
chain: GAGACCGCAACTGAAAAGTTGTTATCACTTGTCGTAAGACACTTTGGATGGGTTGAAGTTCTGCACGTAGAAGCAAAAGGC

This series covers variants of B1. Description: fraction ligated after 30 min (ligated reads / total reads); higher = more ligase activity. Particulars: with F1*sub RNA substrate (template-directed ligation), 42 °C. The method, boiled down:
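Ligase ribozyme variants were made from oligo-pool templates by PCR amplification, T7 transcription and gel purification. After gel separation, ligated and unligated bands were reverse transcribed with barcoded primers and sequenced on a MiSeq, with core bases filtered at quality ≥20. The fraction ligated for each variant was the number of ligated reads divided by total reads.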
As for GAGACCGCAACTGAAAAGTTGTTATCACTTGTCGTATGACACTTTGGGTGGGTTGAAGTTCTGCACGTAGAAGCAAAAGGC [A37T A48G], the fraction ligated turned out to be 0.804.
The figure for GAGACCGCAACTGAAAAGTTGTTATCACTTGTCGTATGACACTTTGGCTGGGTTGAAGTTCTGCACGTAGAAGCAAAAGGC [A37T A48C] is 0.763.
The figure for GAGACCGCAACTGAAAAGTTGTTATCACTTGTCGTATGACACTTTGGTTGGGTTGAAGTTCTGCACGTAGAAGCAAAAGGC [A37T A48T] is 0.675; for GAGACCGCAACTGAAAAGTTGTTATCACTTGTCGTATGACATTTTGGATGGGTTGAAGTTCTGCACGTAGAAGCAAAAGGC [A37T C42T] it is 0.858; for GAGACCGCAACTGAAAAGTTGTTATCACTTGTCGTATGACAATTTGGATGGGTTGAAGTTCTGCACGTAGAAGCAAAAGGC [A37T C42A] it is 0.85.
With GAGACCGCAACTGAAAAGTTGTTATCACTTGTCGTATGACAGTTTGGATGGGTTGAAGTTCTGCACGTAGAAGCAAAAGGC [A37T C42G], the fraction ligated was determined as 0.849.
The figure for GAGACCGCAACTGAAAAGTTGTTATCACTTGTCGTATGACACTTTGGATTGGTTGAAGTTCTGCACGTAGAAGCAAAAGGC [A37T G50T] is 0.793; for GAGACCGCAACTGAAAAGTTGTTATCACTTGTCGTATGACACTTTGGATCGGTTGAAGTTCTGCACGTAGAAGCAAAAGGC [A37T G50C] it is 0.388.
The figure for GAGACCGCAACTGAAAAGTTGTTATCACTTGTCGTATGACACTTTGGATAGGTTGAAGTTCTGCACGTAGAAGCAAAAGGC [A37T G50A] is 0.602; for GAGACCGCAACTGAAAAGTTGTTATCACTTGTCGTATCACACTTTGGATGGGTTGAAGTTCTGCACGTAGAAGCAAAAGGC [A37T G38C] it is 0.841; for GAGACCGCAACTGAAAAGTTGTTATCACTTGTCGTATTACACTTTGGATGGGTTGAAGTTCTGCACGTAGAAGCAAAAGGC [A37T G38T] it is 0.838.
The figure for GAGACCGCAACTGAAAAGTTGTTATCACTTGTCGTATAACACTTTGGATGGGTTGAAGTTCTGCACGTAGAAGCAAAAGGC [A37T G38A] is 0.827; for GAGACCGCAACTGAAAAGTTGTTATCACTTGTCGTAGGACACTTTGGATGGGTTCAAGTTCTGCACGTAGAAGCAAAAGGC [A37G G55C] it is 0.833.
With GAGACCGCAACTGAAAAGTTGTTATCACTTGTCGTAGGACACTTTGGATGGGTTAAAGTTCTGCACGTAGAAGCAAAAGGC [A37G G55A], the fraction ligated was 0.846.
GAGACCGCAACTGAAAAGTTGTTATCACTTGTCGTAGGACACTTTGGATGGGTTTAAGTTCTGCACGTAGAAGCAAAAGGC [A37G G55T]: the fraction ligated stood at 0.834.
As to GAGACCGCAACTGAAAAGTTGTTATCACTTGTCGTATGACACTTTGAATGGGTTGAAGTTCTGCACGTAGAAGCAAAAGGC [A37T G47A], the fraction ligated came to 0.806.
Turning to GAGACCGCAACTGAAAAGTTGTTATCACTTGTCGTATGACACTTTGCATGGGTTGAAGTTCTGCACGTAGAAGCAAAAGGC [A37T G47C], the fraction ligated turned out to be 0.178.
The figure for GAGACCGCAACTGAAAAGTTGTTATCACTTGTCGTATGACACTTTGTATGGGTTGAAGTTCTGCACGTAGAAGCAAAAGGC [A37T G47T] is 0.346; for GAGACCGCAACTGAAAAGTTGTTATCACTTGTCGTATGAGACTTTGGATGGGTTGAAGTTCTGCACGTAGAAGCAAAAGGC [A37T C40G] it is 0.82; for GAGACCGCAACTGAAAAGTTGTTATCACTTGTCGTATGAAACTTTGGATGGGTTGAAGTTCTGCACGTAGAAGCAAAAGGC [A37T C40A] it is 0.809.
The figure for GAGACCGCAACTGAAAAGTTGTTATCACTTGTCGTATGATACTTTGGATGGGTTGAAGTTCTGCACGTAGAAGCAAAAGGC [A37T C40T] is 0.842; for GAGACCGCAACTGAAAAGTTGTTATCACTTGTCGTAGGACACATTGGATGGGTTGAAGTTCTGCACGTAGAAGCAAAAGGC [A37G T43A] it is 0.867.
The figure for GAGACCGCAACTGAAAAGTTGTTATCACTTGTCGTAGGACACCTTGGATGGGTTGAAGTTCTGCACGTAGAAGCAAAAGGC [A37G T43C] is 0.853; for GAGACCGCAACTGAAAAGTTGTTATCACTTGTCGTAGGACACGTTGGATGGGTTGAAGTTCTGCACGTAGAAGCAAAAGGC [A37G T43G] it is 0.814; for GAGACCGCAACTGAAAAGTTGTTATCACTTGTCGTAGGACACTTTCGATGGGTTGAAGTTCTGCACGTAGAAGCAAAAGGC [A37G G46C] it is 0.81.
GAGACCGCAACTGAAAAGTTGTTATCACTTGTCGTAGGACACTTTTGATGGGTTGAAGTTCTGCACGTAGAAGCAAAAGGC [A37G G46T]: the fraction ligated amounted to 0.806.
On to GAGACCGCAACTGAAAAGTTGTTATCACTTGTCGTAGGACACTTTAGATGGGTTGAAGTTCTGCACGTAGAAGCAAAAGGC [A37G G46A], for which the fraction ligated was 0.818.
The figure for GAGACCGCAACTGAAAAGTTGTTATCACTTGTCGTATGACACTTTGGATGGGTTGTAGTTCTGCACGTAGAAGCAAAAGGC [A37T A56T] is 0.83; for GAGACCGCAACTGAAAAGTTGTTATCACTTGTCGTATGACACTTTGGATGGGTTGCAGTTCTGCACGTAGAAGCAAAAGGC [A37T A56C] it is 0.786.
The figure for GAGACCGCAACTGAAAAGTTGTTATCACTTGTCGTATGACACTTTGGATGGGTTGGAGTTCTGCACGTAGAAGCAAAAGGC [A37T A56G] is 0.807.
In the case of GAGACCGCAACTGAAAAGTTGTTATCACTTGTCGTATGACACTTTGGATGGGTTGACGTTCTGCACGTAGAAGCAAAAGGC [A37T A57C], the fraction ligated was 0.854.
GAGACCGCAACTGAAAAGTTGTTATCACTTGTCGTATGACACTTTGGATGGGTTGAGGTTCTGCACGTAGAAGCAAAAGGC [A37T A57G]: the fraction ligated was determined as 0.842.
Turning to GAGACCGCAACTGAAAAGTTGTTATCACTTGTCGTATGACACTTTGGATGGGTTGATGTTCTGCACGTAGAAGCAAAAGGC [A37T A57T], the fraction ligated amounted to 0.838.
The figure for GAGACCGCAACTGAAAAGTTGTTATCACTTGTCGTATGACGCTTTGGATGGGTTGAAGTTCTGCACGTAGAAGCAAAAGGC [A37T A41G] is 0.799.
